In one experiment the test system is VISTA+ BMDMs. Briefly: VISTA membrane expression on macrophages after Ca2+ flux modulation. The experiment is classed as cell-based, mouse. An excerpt: (§1) Flow cytometry staining and analysis.
In general terms: Calcium assays in cells follow changes in intracellular calcium, usually with a dye or a luminescent sensor.

Experiment [1] has as its system early-stage breast cancer. Briefly: Retrospective analysis of medications in stage 0 or 1 breast cancer patients. The experiment is classed as in vivo, human. The note with it: poor outcome = recurrence or death; for estimated patient number with poor outcome: based on estimated 2.54% of patients taking the medication; for actual patient number with poor outcome: patients taking the medication. From the text:
To explore whether some medications have impact on early-stage breast cancer recurrence, we performed a retrospective analysis of the most commonly prescribed medications took by patients with stage 0 or stage 1 breast cancer. Stage 0 and 1 breast cancers are highly treatable early-stage breast cancers and generally have very good prognosis in the first five years. Typically, surgery, radiation, or a combination of the two are the standard treatments. Hormone therapy, depending on the type of cancer cells and additional risk factors, is also an option. To rule out potential impact of the medications on therapies, patients who received treatment other than surgeries were excluded. 1652 patients diagnosed with stage 0 or 1 breast cancer at MDACC between 2016-2021 were enrolled in the study. 29 patients have been diagnosed with cancer recurrence (1.76%) and 3 out of 29 patients were deceased by 2021. Another 13 patients were also deceased, but whether cancer is the cause of their deaths is not clear. Altogether, total 42 patients (2.54%) have poor clinical outcome, including cancer recurrence or death. We first analyzed the 50 most prescribed drugs in USA which include many common drugs such as Aspirin, Simvastatin, and Metformin. About half of the drugs (24) were took by >100 patients based on their electric health record. To cover more medications, we further expanded the drug list by adding the top 20 over-the-counter medicines (OTC) sold on AMAZON website. To explore potential impact of medications on cancer recurrence and patient mortality, we compared the predicated patient numbers with poor clinical outcomes (X-axis) based on the estimated 2.54% (the ratio of total patients with poor outcome to total number of patients) versus the actual patient number with poor outcomes (Y-axis) of each medication (FIG. 15A). Most medications show limited impacts on patients' outcome, including Aspirin (8.5 vs. 8, estimated vs. actual patient number with poor outcome) and Metformin (3.5 vs 4). […] Instead, antihistamine may intercept or delay early-stage breast cancer progression by enhancing immune surveillance.

Another experiment concerns melanoma patients. Briefly: Retrospective Epic SlicerDicer analysis of anti-PD-1/PD-L1-treated melanoma patients. It is filed as in vivo, human. The note with it: patients taking the medicine during anti-PD-1/PD-L1 treatment vs those who did not. The procedure:
Epic SlicerDicer software analysis. Our retrospective study was conducted on melanoma patients encountered during 2016-2017 at The University of Texas MD Anderson Cancer Center, which draws a diverse range of local, regional, national, and international patients. The study population consisted of all melanoma patients with of International Classification of Diseases (ICD) code C43 (10th version). Anonymized aggregate-level data were collected using the SlicerDicer function within MD Anderson Epic electronic medical records. Institutional Review Board approval was therefore waived. Using the Epic SlicerDicer, we identified 9922 patients with a visit diagnosis, billing diagnosis, or active problem list with malignant skin of melanoma (ICD-10-CM:C43, which includes all subgroups). EPIC SlicerDicer was used to further identify 878 of these patients who received anti-PD-1 antibodies (pembrolizumab, nivolumab, or cemiplimab) or anti-PD-L1 antibodies (durvalumab, atezolizumab, or avelumab) treatment during the study period. […] The estimated patient deaths of each subgroup were calculated based on the patient number of each subgroup and the average patient death rate (39%, based on deceased patients out of total patients analyzed). […] The survival time was calculated as the days between the two dates. […]

Another experiment deals with CD8+ T cells. Briefly: In vitro co-culture of macrophages with T cells. The experiment is classed as cell-based, mouse. The note with it: T cells co-cultured with histamine-treated macrophages vs vehicle-treated. The procedure:
In vitro co-culture with T cells. Spleens from wild-type C57BL/6 or BALB/c mice were harvested and filtered through a […] cell strainer to generate a single-cell suspension. After red blood cell lysis, splenocytes were counted and plated in complete Roswell Park Memorial Institute 1640 medium supplemented with […] b-mercaptoethanol and 10 mM HEPES onto 12-well plates coated with […] anti-CD3 (clone 145-2C11, BioLegend) and […] anti-CD28 (clone 37N, BioLegend) antibodies. Spleen T cells were activated for 48 hours before co-culture with macrophages. To educate the macrophages, we co-cultured naïve BMDMs with tumor cells at a ratio of 1:1 or with tumor cell-derived conditioned medium for 48 hours. Macrophages were seeded with activated T cells at a ratio of 5:1. After co-culture for another 24 or 48 hours, T cells were collected for flow cytometry analysis.
as §1

Another experiment has as its system peritoneal macrophages. The note with it: histamine 10 mM, vs vehicle-treated.
Experiment [2] concerns lung cancer, breast cancer, and colon cancer patients. Briefly: Basket trial of anti-PD-1 treatment, response by pre-treatment plasma histamine (n=70). It is filed as in vivo, human. An excerpt:
(§2) Human samples. The untreated breast cancer samples including tumor tissues and blood plasma from TNBC patients who had undergone a mastectomy before therapy, normal breast tissues from women undergoing cosmetic breast surgery, and blood plasma from colon cancer patients and healthy subjects were collected at the First Affiliated Hospital of Chongqing Medical University. The blood plasma from patients with advanced lung (n=48), colon (n=12) and breast (n=10) cancers were collected pre-anti-PD1 treatment (patients were treated with Camrelizumab between Dec. 24, 2019 and Feb. 27, 2021) at the Beijing Friendship Hospital of Capital Medical. Best percentage change in the sum of the diameters for the selected target lesion is defined by Response Evaluation Criteria in Solid Tumors (RECIST version 1.1) on minimum 2 computed tomographic scans before treatment and 1 computed tomographic scan during treatment. The use of pathological specimens, as well as the review of all pertinent patient records, were approved by the Research Ethics Committee of the First Affiliated Hospital of Chongqing Medical University (project approval number 1005367 2017-012) and the Research Ethics Committee of Beijing Friendship Hospital of Capital Medical University (project approval number 2017-P2-141-01), and written informed consent were obtained from each participant and/or their legal representative, as appropriate.
(§3) Enzyme-linked immunosorbent assay (ELISA). The levels of histamine in cell culture supernatant, serum/plasma, and tissues were detected by Histamine ELISA kits (ENZ-KIT140-0001, Enzo; ab213975, Abcam) according to the manufacturer's instructions.

Another experiment deals with lung cancer patients. Briefly: Responses of anti-PD-1-treated lung cancer patients by plasma histamine. The note with it: patient count, lung cancer (n = 48). It is filed as in vivo, human.
Text: as §2, §3

The next experiment concerns colon cancer patients. Briefly: Responses of anti-PD-1-treated colon cancer patients by plasma histamine. It is filed as in vivo, human. The note with it: patient count, colon cancer (n = 12).
Text: as §2, §3

In another experiment the test system is breast cancer patients. Briefly: Responses of anti-PD-1-treated breast cancer patients by plasma histamine. It is filed as in vivo, human. The note with it: patient count, breast cancer (n = 10).
Text: as §2, §3

Setting [3] is: patients with high levels of plasma histamine (>0.6 ng/mL).
[4] abbreviates: patients with low levels of plasma histamine (<0.3 ng/mL).
[5] abbreviates: Histamine Medium (0.3-0.6 ng/ml).
The mark [6] stands for this setting: Histamine Low (<0.3 ng/ml), no patients in group.

Experimental for peritoneal macrophages: Macrophage polarization and stimulation. To polarize macrophages toward an M1-like phenotype, we stimulated PBMC-derived macrophages or BMDMs with IFN-g (20 ng/ml, PeproTech) for 48 hours. To induce an M2-like phenotype, we treated THP-1-derived macrophages or BMDMs with IL-4 (20 ng/mL, PeproTech) for 48 hours. […] To stimulate macrophages with tumor cell-derived conditioned medium (TCM), we cultured BMDMs with complete medium containing 50% TCM (volume).
Flow cytometry staining and analysis. Live single cells were sub-gated by staining with Fixable Viability Dye eFluor 450 (eBioscience) for 15 minutes at 4° C. For blocking of Fc receptors, cells were then pre-incubated with purified anti-CD16/32 antibody (clone 93, BioLegend) for 10 minutes on ice before immunostaining. After one wash with flow cytometry buffer, cells were incubated with appropriate dilutions of various combinations of the following antibodies. […]

For `CC(=O)OCOC(=O)CN(CC(=O)OCOC(C)=O)c1ccccc1OCCOc1ccccc1N(CC(=O)OCOC(C)=O)CC(=O)OCOC(C)=O` [BAPTA-AM], in the experiment on VISTA+ BMDMs (WT TAMs, BAPTA-AM), the “HRH1-mediated membrane VISTA expression” value is on record as “reduced HRH1-mediated membrane VISTA expression”.

With `CN(C)C(=N)N=C(N)N` [Metformin], in experiment [1], the “estimated patient number with poor outcome” value is on record as 3.5 and the “actual patient number with poor outcome” value was determined as 4.

`CC1(C)S[C@@H]2[C@H](NC(=O)[C@H](N)c3ccccc3)C(=O)N2[C@H]1C(=O)O` [ampicillin]: the death rate entry in the experiment with melanoma patients was “increased death rate”.

As to `CC(=O)Oc1ccccc1C(=O)O` [aspirin], the death rate result in the experiment on melanoma patients is on record as “reduced death rate”. In addition, in experiment [1], the “estimated patient number with poor outcome” value is 8.5 and the “actual patient number with poor outcome” value is listed as 8.

For `NCCc1c[nH]cn1` [histamine], the T cell activation result with CD8+ T cells is “significantly suppressed T cell activation”. In addition, the “M2-like marker CD206 and M1-like marker MHCII” value with peritoneal macrophages is “increased M2-like marker CD206 and reduced M1-like marker MHCII”.

With `C[C@H](CCC(=O)O)C[C@H](C)C[C@H](C)C(=O)/C=C(\O)[C@H](C)C[C@H](C)C/C=C/[C@@H](C)[C@@H](O)[C@@H](C)[C@@H](O)C[C@@H]1CC[C@@](C)([C@H]2CC[C@@](C)([C@@H](C)O)O2)O1` [ionomycin], in the experiment on VISTA+ BMDMs (HRH1-/- TAMs, ionomycin), the “cell-surface VISTA expression” value is listed as “increased cell-surface VISTA expression”.

B1: Camrelizumab (antibody, chains of the INN, looked up, V domains shown)
VH: EVQLVESGGGLVQPGGSLRLSCAASGFTFSSYMMSWVRQAPGKGLEWVATISGGGANTYYPDSVKGRFTISRDNAKNSLYLQMNSLRAEDTAVYYCARQLYYFDYWGQGTTVTVSS
VL: DIQMTQSPSSLSASVGDRVTITCLASQTIGTWLTWYQQKPGKAPKLLIYTATSLADGVPSRFSGSGSGTDFTLTISSLQPEDFATYYCQQVYSIPWTFGGGTKVEIK
notes: anti-PD1 treatment of the basket-trial patients (Camrelizumab)
On to B1, for which the figures for the “disease control rate (DCR)” value in [2] (setting [3]) and in experiment [2] (setting [4]) were 44% and 88.3%, respectively. For the same molecule, the “overall response rate (ORR)” value in experiment [2] (setting [3]) worked out at 16%; in experiment [2] (setting [4]), 55.6%. In addition, the figures for the “Treatment response CR” value in the experiment with lung cancer patients (Histamine High (≥0.6 ng/ml)), in the experiment with lung cancer patients (Histamine Low (<0.3 ng/ml)) and in the experiment with lung cancer patients (setting [5]) were 0, 1 and 0, respectively. Moreover, the “Treatment response PD” value in the experiment with lung cancer patients (Histamine High (≥0.6 ng/ml)) is listed as 6; with lung cancer patients (Histamine Low (<0.3 ng/ml)), 2; with lung cancer patients (setting [5]) it was 6; with colon cancer patients (Histamine High (≥0.6 ng/ml)), 4; in the experiment with colon cancer patients (setting [6]), 0; in the experiment on colon cancer patients (setting [5]), 1. The “Treatment response PD” value is 4 in the experiment with breast cancer patients (Histamine High (≥ 0.6 ng/ml)), 0 in the experiment with breast cancer patients (setting [6]) and 1 in the experiment on breast cancer patients (setting [5]). Further, the “Treatment response PR” value in the experiment on lung cancer patients (Histamine High (≥0.6 ng/ml)) is on record as 2; in the experiment on lung cancer patients (Histamine Low (<0.3 ng/ml)) it was 9; in the experiment with lung cancer patients (setting [5]), 7; in the experiment on colon cancer patients (Histamine High (≥0.6 ng/ml)), 2; in the experiment with colon cancer patients (setting [6]) it was 0; in the experiment with colon cancer patients (setting [5]) it was 2. Besides, the “Treatment response PR” value amounted to 0 with breast cancer patients (Histamine High (≥ 0.6 ng/ml)), 0 in the experiment on breast cancer patients (setting [6]) and 1 in the experiment with breast cancer patients (setting [5]). The “Treatment response SD” value in the experiment on lung cancer patients (Histamine High (≥0.6 ng/ml)) is listed as 3; with lung cancer patients (Histamine Low (<0.3 ng/ml)), 6; in the experiment on lung cancer patients (setting [5]), 6; in the experiment on colon cancer patients (Histamine High (≥0.6 ng/ml)), 2; with colon cancer patients (setting [6]) it was 0; in the experiment on colon cancer patients (setting [5]) it was 1. Also, the “Treatment response SD” value in the experiment with breast cancer patients (Histamine High (≥ 0.6 ng/ml)) amounted to 2; in the experiment with breast cancer patients (setting [6]) it was 0; in the experiment on breast cancer patients (setting [5]) it was 2.
